Test results: publication PMC7688132, “Preparation and characterization of monoclonal antibodies recognizing two CD4 isotypes of Microminipigs” (PLoS ONE, 2020)
Blank lines part the entries; values can stand above or below the binder they belong to.

Assays:
[1] = target: T1, CD4.B, endogenous in CD4.B (+/+) Microminipig cells (Sus scrofa, Microminipig, allele CD4.B …, UniProt A0A0M4UHP2, strain); experiment: flow cytometry on cells; CD4.A (+/+) and CD4.B (+/+) swine PBMCs stained with the purified mAb and anti-mouse IgG-APC (b1D7) or anti-mouse IgG2a-FITC (x1E10); lymphocyte gate; isotype control; details: one partner purified
T1 construct: CD4 allele CD4.B of the Microminipig, as in animals genotyped CD4.B (+/+) by PCR-RFLP; allele mRNA LC064060; also called CD4.B (+/+) swine PBMCs; CD4.B (+/+) spleen; source: endogenous, CD4.B (+/+) Microminipig PBMCs and spleen tissue sections

[2] = target: T2, CD4.A, endogenous in CD4.A (+/+) Microminipig cells (Sus scrofa, Microminipig, allele CD4.A …, UniProt A0A0M3VH80, strain); experiment: as above; details: one partner purified
T2 construct: CD4 allele CD4.A of the Microminipig, as in animals genotyped CD4.A (+/+) by PCR-RFLP; allele mRNA LC064059; also called CD4.A (+/+) swine PBMCs; CD4.A (+/+) spleen; source: endogenous, CD4.A (+/+) Microminipig PBMCs and spleen tissue sections

[3] = target: T3, swine (Microminipig) CD4.A expressed on transfected HEK293 cells (Sus scrofa, Microminipig, allele CD4.A, UniProt A0A0M3VH80, strain); experiment: flow cytometry on cells; HEK293 transfected with CD4.A or CD4.B (mVenus co-expressed) stained with hybridoma clone supernatant, then anti-mouse IgG-APC; details: partners not purified
T3 construct: CD4 allele CD4.A of the Microminipig; also called CD4.A transfectant; source: HEK293, transfected (S/MAR episomal vector, mVenus co-expressed), on cells

[4] = target: T4, swine (Microminipig) CD4.B expressed on transfected HEK293 cells (Sus scrofa, Microminipig, allele CD4.B, UniProt A0A0M4UHP2, strain); experiment: as above; details: partners not purified
T4 construct: CD4 allele CD4.B of the Microminipig; five replacements between the alleles are printed (T61I, G65R, G66S, G68R, T73K); also called CD4.B transfectant; source: HEK293, transfected (S/MAR episomal vector, mVenus co-expressed), on cells

[5] = target: T3, swine (Microminipig) CD4.A expressed on …; experiment: flow cytometry on cells; HEK293 transfected with CD4.A or CD4.B stained with biotinylated x1E10 and streptavidin PE-Cy7; details: one partner purified
[6] = target: T4, swine (Microminipig) CD4.B expressed on …; experiment: as above; details: one partner purified

binding result [1]: binds
binding result [2]: binds
binding result [3]: binds
binding result [4]: binds
B1: anti-swine CD4.AB mAb x1E10 (antibody, V domains shown)
VH: DVQLQESGPGLVKPSQSLSLTCTVTGYSIISDYAWNWIRQFPGNKMEWMGYILYSGTTNYNPSLKSRISITRDTSKNQFFLQLNSVTTEDTATYYCARRTYYDYDYYGMDYWGQGTSVTVSS
VL: DVLMTQIPLSLPVSLGDQASISCRSSQTIVHSLGNTYLEWYLQKPGQSPKLLIYKVSNRFSGVPDRFIGSGSGTDFTLKITRVEAEDLGVYYCFQGSHVPWTFGGGTKLEIK
notes: IgG2a kappa; also called x1E10 (1C3-1E8); anti-CD4AB mAb; source: mouse hybridoma (BALB/c splenocytes fused with P3-X63-Ag8-U1), clone supernatant; purified mAb

binding result [5]: binds
binding result [6]: binds
B2: biotinylated x1E10 mAb (antibody, V domains shown)
VH: B1 VH
VL: B1 VL
notes: as the heavy chain of m2; as the light chain of m2; IgG2a kappa; same antibody as m2 with a biotin label; also called x1E10 labeled with biotin; source: mouse hybridoma x1E10; biotinylated with Biotin Labeling Kit (Cosmo Bio)
